In the assay the target is Actin from rabbit muscle (rabbit) (UniProt P68135). The assay can be described thus: co-sedimentation.

Results on one substance are retold here after article PMC5525146.

As for “Palld-Ig3 K38/51A double mutant (domain or fragment)”, the percent of protein co-sedimented with F-actin at saturation fell in the range of 20 to 22%.
